Measurements taken from patent US20130058939.

Target: mouse NMDA receptor NR1 subunit, P35438

B1: rt-PA (alteplase), recombinant human t-PA (protein)
chain: SYQVICRDEKTQMIYQQHQSWLRPVLRSNRVEYCWCNSGRAQCHSVPVKSCSEPRCFNGGTCQQALYFSDFVCQCPEGFAGKCCEIDTRATCYEDQGISYRGTWSTAESGAECTNWNSSALAQKPYSGRRPDAIRLGLGNHNYCRNPDRDSKPWCYVFKAGKYSSEFCSTPACSEGNSDCYFGNGSAYRGTHSLTESGASCLPWNSMILIGKVYTAQNPSAQALGLGKHNYCRNPDGDAKPWCHVLKNRRLTWEYCDVPSCSTCGLRQYSQPQFRIKGGLFADIASHPWQAAIFAKHRRSPGERFLCGGILISSCWILSAAHCFQERFPPHHLTVILGRTYRVVPGEEEQKFEVEKYIVHKEFDDDTYDNDIALLQLKSDSSRCAQESSVVRTVCLPPADLQLPDWTECELSGYGKHEALSPFYSERLKEAHVRLYPSSRCTSQHLLNRTVTDNMLCAGDTRSGGPQANLHDACQGDSGGPLVCLNDGRMTLVGIISWGLGCGQKDVPGVYTKVTNYLDWIRDNMRP
net integrated increase in [Ca2+]i evoked by NMDA after 15 min exposure to t-PA (20 µg/ml): the net integrated increase in [Ca^2+]i (area under the curve expressed in arbitrary units) was enhanced by 37%
